Experimental data: US20250339570A1

What follows are substances tested against CD46 (UniProt P15529) (assay: magnetic bead radioligand binding assay; CD46 on Ni-NTA beads, 10 ng radioimmunoconjugate, bead activity/standard).
With 225Ac-Macropa-PEG0-YS5 (antibody) the target binding fraction was > 75%.
In the case of 225Ac-Macropa-PEG4-YS5 (antibody), the target binding fraction is reported as > 75%.
225Ac-Macropa-PEG8-YS5 (antibody) was tested, and the target binding fraction was > 75%.
